Assays:
[1] = target: full length cynomolgous monkey TMPRSS6 on HEK293 cells (HEK293/mfTMPRSS6) (cynomolgous monkey/Macaca fascicularis); assay: flow cytometry, HEK293 cells expressing target, secondary alone
[2] = target: full length human TMPRSS6 on HEK293 cells (HEK293/hTMPRSS6) (human) (UniProt Q8IU80); assay: as above
[3] = target: catalytically inactive full length human TMPRSS6 on HEK293 cells (HEK293/hTMPRSS6 (S762A)) (human) (UniProt Q8IU80); assay: as above
[4] = target: full length mouse TMPRSS6 on HEK293 cells (HEK293/mTMPRSS6) (mouse) (UniProt Q9DBI0); assay: as above
Sequence of full length mouse TMPRSS6 on HEK293 cells (HEK293/mTMPRSS6) (mouse) (Q9DBI0 whole entry): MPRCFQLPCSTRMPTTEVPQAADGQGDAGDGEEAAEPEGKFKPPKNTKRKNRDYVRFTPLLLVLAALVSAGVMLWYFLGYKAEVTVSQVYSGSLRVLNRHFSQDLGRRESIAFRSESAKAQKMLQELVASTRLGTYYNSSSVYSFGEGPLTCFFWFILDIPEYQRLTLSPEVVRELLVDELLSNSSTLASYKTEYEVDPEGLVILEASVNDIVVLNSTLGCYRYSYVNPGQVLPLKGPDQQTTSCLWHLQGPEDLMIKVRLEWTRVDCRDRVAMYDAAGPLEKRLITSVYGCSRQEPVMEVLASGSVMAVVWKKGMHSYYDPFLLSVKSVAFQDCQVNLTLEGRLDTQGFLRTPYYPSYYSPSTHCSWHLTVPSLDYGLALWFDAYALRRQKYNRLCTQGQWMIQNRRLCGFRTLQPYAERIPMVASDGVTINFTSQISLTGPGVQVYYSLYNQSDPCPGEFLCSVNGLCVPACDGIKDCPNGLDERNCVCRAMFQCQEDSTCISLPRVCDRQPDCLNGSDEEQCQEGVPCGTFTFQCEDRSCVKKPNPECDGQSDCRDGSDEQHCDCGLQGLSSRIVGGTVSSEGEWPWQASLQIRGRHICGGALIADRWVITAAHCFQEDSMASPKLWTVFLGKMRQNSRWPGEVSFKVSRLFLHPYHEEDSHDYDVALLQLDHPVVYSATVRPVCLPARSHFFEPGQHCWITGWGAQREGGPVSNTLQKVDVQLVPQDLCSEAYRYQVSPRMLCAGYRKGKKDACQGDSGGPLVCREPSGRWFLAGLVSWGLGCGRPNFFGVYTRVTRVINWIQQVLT

[5] = target: full length human TMPRSS6 with a C-terminal triple myc tag on HEK293.hHJV cells (HEK293.hHJV/3xMyc.hTMPRSS6) (human) (UniProt Q8IU80); assay: cell-based or functional assay
[6] = target: full-length mouse TMPRSS6 with a C-terminal triple myc tag on HEK293.hHJV cells (HEK293.hHJV/3xMyc.mTMPRSS6) (mouse) (UniProt Q9DBI0); assay: cell-based or functional assay
[7] = target: full length cynomolgous monkey TMPRSS6 on HEK293 cells (HEK293/mfTMPRSS6) (cynomolgous monkey/Macaca fascicularis); assay: flow cytometry, HEK293 cells expressing target
[8] = target: full length human TMPRSS6 on HEK293 cells (HEK293/hTMPRSS6) (human) (UniProt Q8IU80); assay: flow cytometry, HEK293 cells expressing target
[9] = target: catalytically inactive full length human TMPRSS6 on HEK293 cells (HEK293/hTMPRSS6 (S762A)) (human) (UniProt Q8IU80); assay: flow cytometry, HEK293 cells expressing target
[10] = target: full length mouse TMPRSS6 on HEK293 cells (HEK293/mTMPRSS6) (mouse) (UniProt Q9DBI0); assay: flow cytometry, HEK293 cells expressing target

Sequence of full length human TMPRSS6 on HEK293 cells (HEK293/hTMPRSS6) (human) (Q8IU80 10-811 limits assumed): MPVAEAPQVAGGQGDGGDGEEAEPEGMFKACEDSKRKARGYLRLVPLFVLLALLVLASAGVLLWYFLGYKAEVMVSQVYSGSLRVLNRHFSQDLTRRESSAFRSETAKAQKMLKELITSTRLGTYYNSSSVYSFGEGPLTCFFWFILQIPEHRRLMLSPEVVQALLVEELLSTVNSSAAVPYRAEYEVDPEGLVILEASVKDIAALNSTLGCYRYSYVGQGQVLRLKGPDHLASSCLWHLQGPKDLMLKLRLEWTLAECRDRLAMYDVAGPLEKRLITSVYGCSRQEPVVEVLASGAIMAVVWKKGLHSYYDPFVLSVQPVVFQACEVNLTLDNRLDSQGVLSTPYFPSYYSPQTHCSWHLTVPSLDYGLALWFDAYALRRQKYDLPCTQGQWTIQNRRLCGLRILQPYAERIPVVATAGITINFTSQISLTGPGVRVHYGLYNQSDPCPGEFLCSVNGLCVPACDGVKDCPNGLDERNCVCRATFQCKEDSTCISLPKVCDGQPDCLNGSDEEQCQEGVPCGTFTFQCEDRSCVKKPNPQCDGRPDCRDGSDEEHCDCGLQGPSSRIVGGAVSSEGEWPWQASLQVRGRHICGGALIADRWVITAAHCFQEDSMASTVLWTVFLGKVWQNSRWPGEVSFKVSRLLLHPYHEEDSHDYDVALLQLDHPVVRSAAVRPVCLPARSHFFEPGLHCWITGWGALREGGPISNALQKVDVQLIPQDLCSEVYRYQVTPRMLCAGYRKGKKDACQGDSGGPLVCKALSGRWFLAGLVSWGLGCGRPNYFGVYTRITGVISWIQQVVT
Sequence of full length cynomolgous monkey TMPRSS6 on HEK293 cells (HEK293/mfTMPRSS6) (cynomolgous monkey/Macaca fascicularis) (Q8IU80 other isoform, or with tags, fused parts or gaps): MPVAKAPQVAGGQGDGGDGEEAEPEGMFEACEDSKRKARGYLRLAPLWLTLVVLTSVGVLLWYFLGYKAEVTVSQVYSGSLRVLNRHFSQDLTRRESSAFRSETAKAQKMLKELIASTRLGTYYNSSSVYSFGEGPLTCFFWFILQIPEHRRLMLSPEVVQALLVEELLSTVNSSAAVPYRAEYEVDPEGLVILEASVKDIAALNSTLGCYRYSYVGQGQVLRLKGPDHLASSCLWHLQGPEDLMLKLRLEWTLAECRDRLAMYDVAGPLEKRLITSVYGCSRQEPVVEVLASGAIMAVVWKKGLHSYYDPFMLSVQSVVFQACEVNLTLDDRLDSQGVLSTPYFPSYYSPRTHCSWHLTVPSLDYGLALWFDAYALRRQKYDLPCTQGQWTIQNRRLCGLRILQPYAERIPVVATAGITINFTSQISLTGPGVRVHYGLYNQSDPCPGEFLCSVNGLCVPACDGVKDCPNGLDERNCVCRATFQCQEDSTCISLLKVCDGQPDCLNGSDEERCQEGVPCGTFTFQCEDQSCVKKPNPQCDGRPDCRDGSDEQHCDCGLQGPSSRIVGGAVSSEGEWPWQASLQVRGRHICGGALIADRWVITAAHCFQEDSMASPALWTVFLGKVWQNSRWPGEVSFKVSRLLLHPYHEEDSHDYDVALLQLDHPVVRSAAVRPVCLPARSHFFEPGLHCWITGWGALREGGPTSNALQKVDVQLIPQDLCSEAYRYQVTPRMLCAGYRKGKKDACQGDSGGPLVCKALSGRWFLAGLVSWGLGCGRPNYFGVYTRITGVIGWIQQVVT
Sequence of catalytically inactive full length human TMPRSS6 on HEK293 cells (HEK293/hTMPRSS6 (S762A)) (human) (Q8IU80 10-811 S762A): as the sequence (Q8IU80 10-811 limits assumed) above, with S753A counted along it

A Max. Fold Binding (fold over unstained control) [1] of 1, a Max. Fold Binding (fold over unstained control) [2] of 1 and a Max. Fold Binding (fold over unstained control) [3] of 2 were found for “Alexa Fluor-647 conjugated anti-human secondary antibody (Jackson ImmunoResearch #109-607-003)” in this work. It also gave a Max. Fold Binding (fold over unstained control) [4] of 1.

A Geometric Mean Fluorescence Intensity of cell surface hHJV [5] of 11700, an Inhibition (%) of soluble hHJV release (ELISA) [5] of 15.7% and a Median Fluorescence Intensity of cell surface hHJV [5] of 13000 were found for Isotype Control (antibody) in this work. The Geometric Mean Fluorescence Intensity of cell surface hHJV [6] was 7750, the Inhibition (%) of soluble hHJV release (ELISA) [6] was 5.2% and the Median Fluorescence Intensity of cell surface hHJV [6] was 7230.

A Max. Fold Binding (fold over unstained control) [7] of 1, a Max. Fold Binding (fold over unstained control) [8] of 1 and a Max. Fold Binding (fold over unstained control) [9] of 3 were found for hIgG Subclass Control (antibody) in this work. The Max. Fold Binding (fold over unstained control) [10] was 1.
